Columns and labels:
Canine CD20 (canine) [1] = target: Canine CD20 (canine) (UniProt Q3C2E2); test: cell-based or functional assay
Canine CD20 (canine) [2] = target: Canine CD20 (canine) (UniProt Q3C2E2); test: FACS on CHO cells expressing recombinant canine CD20

Canine CD20 (canine), sequence (Q3C2E2 other isoform, or with tags, fused parts or gaps): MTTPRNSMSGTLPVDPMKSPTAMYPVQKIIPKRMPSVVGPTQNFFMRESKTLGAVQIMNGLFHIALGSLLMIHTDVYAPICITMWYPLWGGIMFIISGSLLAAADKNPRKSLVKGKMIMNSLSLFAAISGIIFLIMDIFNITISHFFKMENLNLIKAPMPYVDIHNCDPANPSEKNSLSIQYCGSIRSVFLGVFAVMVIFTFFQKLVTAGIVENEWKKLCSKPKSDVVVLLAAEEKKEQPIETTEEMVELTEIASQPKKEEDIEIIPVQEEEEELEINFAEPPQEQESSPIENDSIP

B1: anti-canine CD20 antibody CD20-4 (antibody, part only; not given: light chain, V domains shown, part only)
VH: EVQLQQSVAELVRPGASVTLSCKASGYTFTDYEMHWVKQTPVHGLEWIGEIDPETGGTAYNQKFKGKAILTADKSSSTAYMELRSLTSEDSAVYYCTEYAMDYWGQGTSVTVSS
Canine CD20 (canine) [1]
  Reduction (%) of cell proliferation of lymphoma cells: 17.5%
Canine CD20 (canine) [2]
  Kd: 77.4 nM

Reference: US20170002084A1
